Measurements from PMC5052650.

Target: ARTD2 N+WGR fragment (human)
Assay: SAXS; proteins without DNA; measured without chromatography at three different concentrations; MW from Porod volume divided by 1.7

ARTD2 N+WGR fragment (domain or fragment), sequence (Q9UGN5 99-206): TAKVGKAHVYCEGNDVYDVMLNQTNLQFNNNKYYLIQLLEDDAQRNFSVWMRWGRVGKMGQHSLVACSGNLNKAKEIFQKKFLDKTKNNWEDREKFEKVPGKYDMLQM

Substance: ARTD2 N+WGR fragment (domain or fragment)
- stoichiometry N: 2
